{"source": "patent US20090178146", "key": {"[1]": {"tested_on": "GST-fused SP-3 peptide of NFAT1 (amino acids 264-295) with Ser>Ala substitutions in the serines phosphorylated in cells"}, "[2]": {"tested_on": "GST-fused peptide corresponding to the SP-3 motif (amino acids 264-295) of NFAT1, wild type"}}, "data": [{"substance": "recombinant DYRK1A protein kinase (Upstate Biotechnology), bacterially expressed", "values": [{"measurement": "in vitro kinase assay with recombinant kinase, phosphorylation of GST-peptide", "setting": "[1]", "value": "neither kinase phosphorylated an SP-3 peptide with Ser>Ala substitutions in the specific serine residues known to be phosphorylated in cells"}, {"measurement": "in vitro kinase assay with recombinant kinase, phosphorylation of GST-peptide", "setting": "[2]", "value": "DYRK2 and DYRK1A both displayed strong and selective kinase activity towards the SP-3 motif of NFAT1"}]}]}
